Common to all, as to assay: single-molecule force spectroscopy
The target in assay [1] is unmodified nucleosome (human histone octamer on 601 DNA) in nucleosome arrays (human) (UniProt P04908).
In assay [2] the target is 12-mer array with 50% H3K27M mutant copies of H3 (human) (UniProt P04908).
Assay [3] has as its target 12-mer array with an equimolar mixture of unmodified and H3K27me3-containing nucleosomes (UniProt P04908).
The target in assay [4] is H3K27M mutant nucleosome (100% H3K27M 12-mer array) (human) (UniProt P04908).

The values below come from publication PMC7720148.

In turn, “PRC2–AEBP2 complex (from UniProt Q15910;O75530;Q09028;Q15022;Q6ZN18)” returned an average transition force (all clusters) in assay [1] of 14.5 pN.
Consider “Polycomb repressive complex 2 (PRC2) core complex (from UniProt Q15910;O75530;Q09028;Q15022)”, for which the average transition force (all clusters), with SAM in assay [2] stood at 18.3 pN. Further, in assay [3], the average rupture force of C3 transitions was 14.6 pN and the average rupture force of C4 transitions worked out at 16.9 pN. In assay [4], this substance displayed an average C3 transition force, with SAM of 19.6 pN; an average C4 transition force, with SAM of 26.1 pN; an average transition force (all clusters), with SAM of 19.6 pN. Besides, in assay [1], the average C3 transition force, with SAM is 17.8 pN; the average C4 transition force, with SAM turned out to be 19.8 pN; the average rupture force of C3 transitions (adjacent nucleosome pair) was determined as 16.3 pN; the average transition force (all clusters) was found to be 17 pN. Besides, in assay [1], the average transition force (all clusters), with SAM worked out at 17.8 pN.
